Results published in patent US20250282892A1 (published 2025).
Blank lines part the entries; values can stand above or below the binder they belong to.

Columns and labels:
[1] = target: HER3 tag free antigen (immobilized) (UniProt P21860 20-643); experiment: ELISA; dual-binding sandwich: immobilized HER3-Fc + EGFR-His
[2] = target: EGFR tag free antigen (immobilized) (UniProt P00533 25-645); experiment: ELISA; dual-binding sandwich: immobilized EGFR-Fc + HER3-His
HER3 His tag = HER3 His tag (UniProt P21860 20-643); experiment: ELISA
EGFR His tag = EGFR His tag (UniProt P00533 25-645); experiment: ELISA

- EC50 [1]: 0.55 nM
- EC50 [2]: 170 nM
B1: Patri-Matu-Fc (bispecific antibody)
heavy: not shown
light 1: not shown
light 2: DIQMTQSPSSLSASVGDRVTITCSASSSVTYMYWYQQKPGKAPKLLIYDTSNLASGVPSRFSGSGSGTDYTFTISSLQPEDIATYYCQQWSSHIFTFGQGTKVEIKRTVAAPSVFIFPPSDEQLKSGTASVTCLLNNFYPREAKVQWKVDNALQSGNSQESVTEQDSKDSTYSLVSTLTLSKADYEKHKVYACEVTHQGLSSPVTKSFNRGEC

- EC50 (HER3 His tag): 0.0259 nM
- EC50 (EGFR His tag): 0.013 nM
B2: BMX003-011 (humanized Patri-Cetu-Fc modified) (bispecific antibody)
heavy: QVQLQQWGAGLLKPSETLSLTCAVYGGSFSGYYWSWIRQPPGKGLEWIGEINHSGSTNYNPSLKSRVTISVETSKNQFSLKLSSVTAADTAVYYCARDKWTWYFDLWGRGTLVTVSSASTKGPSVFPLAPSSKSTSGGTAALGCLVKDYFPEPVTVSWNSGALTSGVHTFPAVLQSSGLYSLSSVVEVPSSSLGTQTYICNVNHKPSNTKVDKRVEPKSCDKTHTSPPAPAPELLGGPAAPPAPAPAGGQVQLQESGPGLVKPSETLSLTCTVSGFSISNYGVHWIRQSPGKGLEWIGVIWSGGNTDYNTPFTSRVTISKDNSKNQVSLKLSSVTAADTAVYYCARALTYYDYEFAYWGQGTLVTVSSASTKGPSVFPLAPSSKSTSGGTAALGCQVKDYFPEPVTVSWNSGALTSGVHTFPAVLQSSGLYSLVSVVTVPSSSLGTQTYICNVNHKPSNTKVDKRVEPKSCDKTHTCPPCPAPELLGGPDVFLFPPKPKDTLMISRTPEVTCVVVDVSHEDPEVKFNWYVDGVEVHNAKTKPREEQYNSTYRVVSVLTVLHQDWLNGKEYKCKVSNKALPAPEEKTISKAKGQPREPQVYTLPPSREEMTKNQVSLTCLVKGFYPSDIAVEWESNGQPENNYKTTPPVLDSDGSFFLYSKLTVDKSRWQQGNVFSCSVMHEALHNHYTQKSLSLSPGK
light 1: not shown
light 2: EIVLTQSPDFQSVTPKEKVTITCRASQSIGTNIHWYQQKPDQSPKLLIKYASESISGVPSRFSGSGSGTDFTLTINSLEAEDAATYYCQQNNNWPTTFGAGTKLEIKRTVAAPSVFIFPPSDEQLKSGTASVTCLLNNFYPREAKVQWKVDNALQSGNSQESVTEQDSKDSTYSLVSTLTLSKADYEKHKVYACEVTHQGLSSPVTKSFNRGEC

- EC50 (HER3 His tag): 0.0223 nM
- EC50 (EGFR His tag): 0.0155 nM
B3: BMX003-010 (humanized Patri-Cetu-Fc) (bispecific antibody)
heavy: not shown
light 1: not shown
light 2: B2 light 2
